Laboratory results from paper PMC7611088.

Biological target: human β3 homopentameric GABAAR construct (K279T, M3-M4 loop replaced by SQPARAA) (human) (UniProt P28472)
Assay: cryo-EM structure

## human β3 homopentameric GABAAR construct (K279T, M3-M4 loop replaced by SQPARAA) (from UniProt P28472 26-473) (receptor)
  stoichiometry N: 5
